Data published in US20230279125A1 (published 2023).
Changes are numbered by the printed parent chain.

T1: extracellular domain of human IL28RA (human, UniProt Q8IU57 21-228)
T1 construct: Plates were 'coated with IL28RA'; also called hIL28RA ECD antigen; hIL28RA
T1 sequence: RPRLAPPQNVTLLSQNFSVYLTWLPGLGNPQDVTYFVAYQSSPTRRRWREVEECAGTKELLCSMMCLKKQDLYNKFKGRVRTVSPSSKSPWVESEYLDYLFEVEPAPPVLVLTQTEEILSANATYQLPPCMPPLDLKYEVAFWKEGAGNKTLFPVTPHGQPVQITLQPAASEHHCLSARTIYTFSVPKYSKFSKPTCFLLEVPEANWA

B1: hIL28RA VHH10 (VHH, not shown: large carriers)
VHH: QVQLQESGGGSVQAGGSLRLSCASSGYISSRSTYCMGWFRQAPGKEREVAAVVTGDSRTYYGDSVKGRFAISRDNAKNTLYLQMNSLKPEDTAMYYCAAGPPPCITTMPAGGDYGYRYWGQGTQVTVSS
notes: Camel VHH tested as periplasmic extract of a phage clone (PE-ELISA); also called anti-human IL28RA VHH
B2: hIL28RA VHH12 (VHH, not shown: large carriers)
VHH: B1 VHH with V52I, K66R, T107S
notes: as for B1
B3: hIL28RA VHH7 (VHH, not shown: large carriers)
VHH: QVQLQESGGGLVQPGGSLRLSCAASGFTFSNYGMSWVRQAPGKGLEWVSGINSGGDDTFYTDSVKGRFTISRDNAKNTLYLQMNSLKTEDTAMYYCAMGASGMIPRGQGTQVTVSS
notes: as for B1
B4: hIL28RA VHH9 (VHH, not shown: large carriers)
VHH: B3 VHH with A75V
notes: as for B1
B5: hIL28RA VHH2 (VHH, not shown: large carriers)
VHH: B3 VHH with V112I
notes: as for B1
B6: hIL28RA VHH8 (VHH, not shown: large carriers)
VHH: QVQLQESGGGSVQAGGSLRLSCAVSRYTISRSDCMGWFRQAPGKEREGVARIGSDGTTSYADSVKERFTISKDNAKNILYLQMNSLKPEDTARYYCAATALLLGRGSACHKEVSVFSWWGQGTQVTVSS
notes: as for B1
B7: hIL28RA VHH4 (VHH, not shown: large carriers)
VHH: QVQLQESGGGSVQLGGSLRLSCLVSGSTDNIKYMGWFRQAPGKEREGVAAVYTSGGAVVYADSVKGRFTISQDDAKNTMYLQMNSLKPEDTAMYYCAASRAPAPPRLLLQRALVEYWGQGTQVTVSS
notes: as for B1
B8: hIL28RA VHH11 (VHH, not shown: large carriers)
VHH: QVQLQESGGGSVQSGGSLRLSCAASGFTYSSYCMGWFRQAPGKEREGVAAIDSDGSTSYADSVKGRFTISKDNAKNTLYLQMNSLRPEDTAMYYCAADGEYNDYVCWSTGLRYRGQGTQVTVSS
notes: as for B1
B9: hIL28RA VHH1 (VHH, not shown: large carriers)
VHH: QVQLQESGGGSVQAGGSLRLSCASSGYISSSYCMAWFRQAPGKEREGAAGVTRDGKTYYGDSVKGRFAISRDNAKNTLYLQMNSLKPEDTAMYYCAAGPPPCITSMPAGGDYGYRYWGQGTQVTVSS
notes: as for B1
B10: hIL28RA VHH5 (VHH, not shown: large carriers)
VHH: QVQLQESGGGLVQPGGSLRLSCAASGFTFSNATMSWVRQAPGKEIEWVSAISNSRGTKYYAAFVKGRFTISRDNAKNTLYLQLNNLKTEDTAMYYCTKDWKTSYSDYDLSDGQGTQVTVSS
notes: as for B1
B11: hIL28RA VHH13 (VHH, not shown: large carriers)
VHH: B10 VHH with G16S
notes: as for B1
B12: hIL28RA VHH3 (VHH, not shown: large carriers)
VHH: QVQLQESGGGLVQPGGSLRLSCVASGFTFSDYAMSWVRQAPGMGLERVSAIGRDGSTFYPDSVKGRFTISRDNAKNTLYLQLNSLKTEDTAMYYCAKEEPGSSSRGQGTQVTVSS
notes: as for B1
B13: hIL28RA VHH6 (VHH, not shown: large carriers)
VHH: B12 VHH with V23A
notes: as for B1
B14: hIL28RA VHH14 (VHH, not shown: large carriers)
VHH: QVQLQESGGGSVQAGGSLRLSCASSGYISRSSYCMGWFRQAPGKEREVAAIVTGDGRTYYGDSVKGRFAISRDNAKNTLYLQMNSLKPEDTAMYYCVAGPPPCITTMPAGGDYGYRYWGRGTQVTVSS
notes: as for B1

target: T1, extracellular domain of human IL28RA; experiment: periplasmic extract ELISA on IL28RA-coated plates, A450 at least threefold over PBS-coated control
Description: Upon completion of the biopanning of Example 3, three 96-well plates of individual phage clones were isolated in order to perform periplasmic extract ELISA (PE-ELISA) on IL28RA coated plates to identify positive VHH binders that selectively bound IL28RA . A 96-well plate was coated with IL28RA and PBS under the same conditions. Next, wells were blocked at 37° C. for 1 h. Then, 100 µl of extracted antibodies was added to each well and incubated for 1 h. Subsequently, 100 µl of anti-tag polyclonal antibody conjugated to HRP was added to each well and incubated at 37° C. for 1 h. Plates were developed with TMB substrate. The reaction was stopped by the addition of H2SO4. Absorbance at 450 nm was read on a microtiter plate reader. […] Positive clones were sequenced, and sequences analyzed to identify unique clonotypes

**Q.** Does B1 bind?
**A.** binds

**Q.** Does B2 bind?
**A.** binds

**Q.** Does B3 bind?
**A.** binds

**Q.** Does B4 bind?
**A.** binds

**Q.** Does B5 bind?
**A.** binds

**Q.** Does B6 bind?
**A.** binds

**Q.** Does B7 bind?
**A.** binds

**Q.** Does B8 bind?
**A.** binds

**Q.** Does B9 bind?
**A.** binds

**Q.** Does B10 bind?
**A.** binds

**Q.** Does B11 bind?
**A.** binds

**Q.** Does B12 bind?
**A.** binds

**Q.** Does B13 bind?
**A.** binds

**Q.** Does B14 bind?
**A.** binds
